Results from article PMC5651819, “AtSPX1 affects the AtPHR1–DNA-binding equilibrium by binding monomeric AtPHR1 in solution”.

Legend:
GST-AtSPX1 = molecular target: T1, GST-AtSPX1 (Arabidopsis thaliana, UniProt Q8LBH4 1-256); assay: SPR; ~1000 nM GST-AtSPX1 after buffer, with or without 5 mM Pi; low near-baseline signal taken as non-specific; SPR (Biacore 3000, SA chip, ~500 RU DNA): 10 mM HEPES pH 7.5, 200 mM NaCl, 0.01% Surfactant P-20, 25 C, 40 ul/min, with or without Pi/InsP6; conditions: protein: recombinant; tags: N-terminal GST (pGEX-2T); label: 5'-biotin on strand 1; blunt
T1 sequence: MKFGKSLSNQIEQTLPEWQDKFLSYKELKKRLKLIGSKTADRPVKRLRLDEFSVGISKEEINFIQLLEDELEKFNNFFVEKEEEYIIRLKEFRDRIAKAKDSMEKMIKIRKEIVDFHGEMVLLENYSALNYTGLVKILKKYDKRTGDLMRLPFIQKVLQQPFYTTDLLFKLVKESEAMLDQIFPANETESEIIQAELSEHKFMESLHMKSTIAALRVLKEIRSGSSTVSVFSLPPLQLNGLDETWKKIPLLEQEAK

MBP-AtdPHR1 = MBP-AtdPHR1 (Arabidopsis thaliana, UniProt Q94CL7 208-362); assay: SPR; 1:1 fit at 2.5 nM protein, n = 3; ka 3.5e4 M-1 s-1, kd 0.00049 s-1; SPR (Biacore 3000, SA chip, ~500 RU DNA): 10 mM HEPES pH 7.5, 200 mM NaCl, 0.01% Surfactant P-20, 25 C, 40 ul/min, with or without Pi/InsP6; conditions: protein: recombinant; tags: N-terminal MBP (pMAL-c2x); chain copies: 2; label: 5'-biotin on strand 1; blunt
Chain of MBP-AtdPHR1 (Q94CL7 208-362): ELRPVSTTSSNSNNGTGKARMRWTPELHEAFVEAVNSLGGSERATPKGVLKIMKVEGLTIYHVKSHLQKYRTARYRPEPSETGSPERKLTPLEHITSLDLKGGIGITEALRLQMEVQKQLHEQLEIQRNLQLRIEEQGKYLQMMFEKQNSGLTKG

B1: 2x P1BS probe (dsDNA)
DNA 1: CAGAGAAAAAAGGATATTCTAATTAGAAACCTTAAGAATATTCTTTTTAATCCC
DNA 2: GGGATTAAAAAGAATATTCTTAAGGTTTCTAATTAGAATATCCTTTTTTCTCTG
binding result (GST-AtSPX1): no binding | Kd (MBP-AtdPHR1): 14 ± 2.4 nM
